One protein from paper PMC5785730, “Assays of D-Amino Acid Oxidase Activity” (Frontiers in Molecular Biosciences, 2018) can be followed below.

What all share (details): FAD
Substrate in data set [1]: NCCCC[C@@H](N)C(=O)O
The data set is described as follows: steady-state kinetics, oxygen consumption assay (Km). The format is biochemical, Rhodotorula toruloides.

Substrate in data set [2]: C[C@@H](N)C(=O)O
Nature of the data set: purified protein.

Substrate in data set [3]: N[C@H](CCC(=O)O)C(=O)O
Nature of the data set: purified protein.

B1: RgDAAO (D-amino acid oxidase from Rhodotorula gracilis) (Rhodotorula toruloides) (protein)
chain: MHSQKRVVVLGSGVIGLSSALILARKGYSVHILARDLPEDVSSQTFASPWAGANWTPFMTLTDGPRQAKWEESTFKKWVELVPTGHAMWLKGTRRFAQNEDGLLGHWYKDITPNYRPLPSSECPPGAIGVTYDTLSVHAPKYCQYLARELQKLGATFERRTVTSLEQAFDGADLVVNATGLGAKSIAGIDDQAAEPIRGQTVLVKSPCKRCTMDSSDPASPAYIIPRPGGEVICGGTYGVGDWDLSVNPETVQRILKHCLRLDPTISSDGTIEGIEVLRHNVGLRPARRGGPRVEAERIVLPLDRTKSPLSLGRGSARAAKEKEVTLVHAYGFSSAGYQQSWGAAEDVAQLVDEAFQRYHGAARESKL
notes: recombinant wild-type RgDAAO
For orientation: Km means the concentration of substrate that gives half-maximal velocity. What is called Vmax is the top rate of the reaction or transport when substrate is in excess. B1: the Km was determined as 14.6 ± 1.4 mM in data set [1], 1.3 ± 0.2 mM in data set [2] and 76.4 ± 6.4 mM in data set [3]. Besides, the values for the Vmax in data set [1], in data set [2] and in data set [3] were 16.4 µmol/min/mg, 100 µmol/min/mg and 1.7 µmol/min/mg, respectively.
